The NTF2 design screens of Basanta et al. (2020)

Assay: protease stability score; higher = more stable; yeast display proteolysis, trypsin and chymotrypsin;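 further: log10 excess protease needed over predicted unfolded state with 0 meaning unfolded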

Row | Sequence | protease stability score
1 | DDKKVHKAANRFVEMFRTGNPDDLHKQIDKDAHATVGDKTYRGRTHVVRQIIEMVERVDHVEVKSISVDGDHAKIDMVLRHDGQEERVDVVMRVHNGRFKSIEFQEQ | 0.512
2 | DDKKVRLARSWMQNVRENNEERLQKLIDPNAKVRIGNKVVNGDEEFRRQVKHRKEHMRLDVEIESMTFQGDHVSATYVFRQNVNGTPYSDRVEVHIKMENGRIKHIDARVPEEKLRELSS | -0.106
3 | DDKNRELLTEVLKARETGDPDRIHELLDPNVKVKVGNKTLRGRNEIAKWWKRQTDEMRIEESITHIDVHNGKARMEASARVEINGRPVTYTFIMKAVIHNGRVKEINIHIPEEKMQEVTQ | 0.948
4 | DDKQAKELVKLMHTGDWETLINNMDPNARVVIGNKTYHGRHDAQKLLELWQKRVDHQDIHDVKARGDQLQVNMVFVINGVKFELVITVKFHNGRIESVQYDVTDRDQERKLEDLMS | 1.67
5 | DDKQLDERVKEIQEVIRDNDPDSMKHLMDPNARMFVGDKEFHGRDEIVRHLKDLWHRVDHFHIKDFRASGNRAVVIAVFHVNGVTAHFKIFVVFQNGRIKQLRIKWRNEDEERRVRS | 0.674
6 | DDKQQMEEMLQKYQEALDTGDPEKLASLFDENAEVRIGDKVYRGHEDIKRAAKHLLDNVDHIEIRLRSLETRPGRIHARLQMNVRHNGKNTTKTLHVVARKQGDEFVVEHMEVE | 2.07
7 | DDKRKADEFAKELVKAVQTGDSDNIRKLLDPNARINVGEKHYQGKDSMAKIMVRIAEDVDHISARVISVRDHNGSAVIHIEVQNNHNGRNSRTRVILHLTDHNGRIKLRERREG | 0.749
8 | DDKTIKENLKVFNRGNPDDMKTLMDKDVRLEVGEKSVHGREQAQTWQDRYERQVDHRRVKSYSMNGNNVVADMVVQVNGREYEVRLEVHVHNGRIKVLRLEVRDEDDRRNLKRLLS | 0.211
9 | DDNEVETVRELIEQLETGDPDKFKEMVDKDVNINVGNKHVHGREEAVEQIRKEAREISFRIKVDRVEAHNGHVRVDFKFDAEVNGQPRSFRAIMVLEIEDGVVKHIELQMDRNQQQRLEK | 1.1
10 | DDNLNRKVKKFWKVLQKGNPHEAKKYFDPNAHIVIGDQRIHGMDKFNRRMEHMKSHIRVQIDTLRMQDNGSQVDVTFEAVFNHNGRPKRYRARVRFEVHNGKAKSLTLKEDQ | 0.265
11 | DDNLRKHVDNLIKLLQDGNPQELVNMADPNARVTIGDEQVHGREQLHEDWHRQAKEMRIQWDHYRVDAQGDKVRVNATRTLQTNGKPDSERFHVEMRLQGDKLQTERVDVHK | -0.265
12 | DDQAKRIVDEILTNMRTGDEDKLKTLIDPNARARVGEKEVHGWDDALKEIADKLRDIRIQIDRFSVKVTGDKVKIDFTAQNEHNGQPSTKKYERNYKIKNGRVKHFEDVSTQ | -0.192
13 | DDQALRLLEEWLKAVQEGDQERAHEMADPNAKFEVGDKTINGMDDVNEQIRRDTESMRYQVQNVHSITRPNHVQADVQFENEHNGNPDTNRMVIQARATNGRIQSLRIQDKK | 0.058
14 | DDQDIRHILDQWRTGDFDQVRNQADENANIVYGDKRYHGREQLQEWMKTLKEQIDHFHIRSITQKGDKARFEAEADVNGVDVKFSVVISVHNGRVKFFEFQWTSEELLERIKHEIG | 0.942
15 | DDQDLAKRLLDQLTKALQHGDERQLQRLMDKDVRVHIGDKNIHGREQAATFWVHLRKHVDRLSVRVKHVDIQGERVVFDMVFVFNHNGRQEHVRVVIVAKKDGDKIRIKRASQN | 2.16
16 | DDQDRSHAVRLMRTGNFKEWADQADKDVSMQVGDKEVRGREQVIKMLKRLQEAADHVQVKSIHTQGEKMKADVTININGDQIRVIIEVVVEGDKLKELRIQFTSEHDEKIMHEQLQ | 1.14
17 | DDQEDAEKAARRFNKIVNENNFDDLLNQFDPNARIQVGDKQYHGRSEISKFMQKWKRQIDHLEAHLKDVKVDNGRIDVKFKFQFHKNGTRVDRDMSLDARRQGDQINIQELHLG | 0.198
18 | DDQEERDWNERMKQVLRTGDEHRLEQLMDENVRMRVGDSVVTGREKVRQVFHELMKQADKIEVKSVSAQGNEVLIRFVLNHNGKNDDVVIEVRVHNGRIKEIVIRSK | -0.001

Row | Sequence | protease stability score
19 | DDQEIAEQAARDFDTAVQEGDEDQIVRMADPNVQLQIGDERYRGREDLRKWIKDIRRQVDHVDVRVRDLKVQGEHVRARIEVQYTENGKTRRYQFEMTNNIHNGRVRMTQVNEK | 0.948
20 | DDQELAEDAQRQFQEVLKTGDPKRANELMDEDARLEVGDTQLHGRERVAKHLSDLRKQADHIDVRVDTIRVHNGRVDADVRIRITKNGQNREFRARLYFTVQGDKVKMKRLQES | 1.38
21 | DDQERREIAKNFQRGNEQVVKKLVDPNARIRVGDKTLHGRDQMSHVFKRLQEQVDHIDVKHYTISGEHIVIDAIFVINGKNIRMVIVVQVENGRVKRVDFKYTNEEQKKQLERDLS | 0.004
22 | DDQEVKKLAHEVQKILEHGDPDQFADLFDKDARMTVGDKDLHGRERIRELAQRQQDRIDHVQLEEYQVHNGRVVLKMRVNVNGHDETINMTLHQRNGKVKEFTQQSR | 0.071
23 | DDQHHAERFVEHVLKQLQTGNENDISKMVDENARVEYGDEEITGRESVVKHLIKEARRVDSIDLKVKSVSKEGDKINVTLVAVLDVNGRKDKRQFRVVMAKQGDKTNIISQHEK | 0.965
24 | DDQHQQKFAEEFNKNLEKGDFHRIAQMADENVRVRYGDKSVNGREHMSQFMKELRDRVDHMEIKDFHASNGKITITFVVNVNGKNITLHISIRVSNGRIHEVSLDPDQLKSLES | 2
25 | DDQKARRLVERFIRALQHGDEDLARQLFDKNAKINIGDKTLTGREDVAKYVHHVHRHVDDVSVKSIQVDGDKAEVRVQFDINGKQHQMTFSAKYRNGRVQSATYKSQ | 0.524
26 | DDQKEIEKVLEVIKRMDTGDEKNVKEMFDPNARASVGERTYHGREDIQSFARELKERVDHVRIDSMSAHGDKATVDLRMNENGRTERYSVRVQIHNGRARHLRYTTK | -0.219
27 | DDQKKKELMQKMVEAYLSGHHEEVEKLGKDDGKVEAGDRKYEGSEQARKAAKQFKTYGVELRITDMQQDGDRLDVKAEAHMGGVTWEFTATVTADGGKVDKIQIDASDDAKKAIKDG | 0.725
28 | DDQKNLEKWVRDFQEVNKTGDPDRFRNLFPPNAEMTIGDKTIKGSETVREYMEHLVNRYDHLDVQVESIHAEGDKLTVKLRLVFNTNGKNDQYVNKVLLDDHNGRLKAHEVHQE | 0.7
29 | DDQKTANHLNKQFKDVWTSGDEHRLQELMDPNVRVDVGDKRYKGDEQVNKYFIDLLRNVDHVDFDVKDMKARGEKVLLVVDIRVDINGKRHRFNARQIFTVEGDQARVKVYHDG | 0.653
30 | DDQKVRVASELLKAIERGDPDQARELMDENAKMVIGETTFTGRDEAAKWISELKKHMRVQIQSVTFHDHNGQIVVNVTFEANINGDPFTMNLIVRVQVHNGRVQNVHYRLSEEQKRRLEQ | 0.969
31 | DDQLFRVLQELWKALQEGDHKHAIDQAPEDARFHVGEKNYHGMEDAAKHLAEFYKQIRVRIEIKRYEINGDSLNVHVVVQMNNNGKPERRRNVILAKLHNGRMLEMQVHDRE | 0.064
32 | DDQLRKKVKTFIRVIQSGNTQEAKKLMDPNARYHVGDKTVDGMDQWATIMTKLKDEMRIQLNVTSVTATNGHIHVRVEVNVDVNGRPINVTVNVYFHIENGRIQRVHYQMDPDEFKHIQR | -0.135
33 | DDQLSDQLDKARKQIEEGNFEQVREYVDPNVSVHVGDKSVHGREKYTHEILRKHQELRYKVEVTRVHVENGRLDVKAQETVNHNGRPESSRYVLDLNMHNGRLKHMTKSSDK | -0.321
34 | DDQNLRSAVRRLVDGNEERAKDTLDENARVEVGEYNFHGREEAQKAFQTMQDRIDHINVKSYKYQGDKASVDMVVEFNGRSVKFVVVVRVHNGHLVNARVQFTDEHQHKRAKEMID | -0.104
35 | DDQQARDIAKELVKALQTGDPERFVELADPNARVEIGDKTYHGHDRMSEMIKTWHRDVDHIRIQDYRAKGDKIEIQFVLDINGKQNRLVMVVQVSNGRITVVFVRSG | 1.35
36 | DDQQKAKTHVRQVRDAATSNDPDEMRRLADENARFVVGDKEYEGRDQVRELVERERDNVDQVEIRLTDVEKRGDRLRLEVRVVWNHNGSHDHKILDMIVQNHNGTLRFVQLQQR | 0.366
